Measurements from US12344663B2, “Anti-C3 antibodies and antigen-binding fragments thereof and their uses for treating eye or ocular diseases” (CDR-Life AG, priority 2021, dated 2025).

Legend:
human C3 = human C3 (Homo sapiens, UniProt P01024); test: SPR (Biacore T100) binding to human C3; conditions: for Binding affinity to C3 and C3b compared to parental molecule Clone IV: in words
Protocol: (§1) The kinetic parameters of the candidates are determined using a surface plasmon resonance (SPR) and Biacore T100 device. C3 and different variants thereof (Table 19) are immobilized as a ligand on a HC30M SPR sensor chip (XanTec bionanalytics, Germany) using EDC/[…] linking chemistry. Five increasing concentrations of each molecule (analyte) are consecutively injected using the single cycle kinetics (SCK) mode to determine the kinetic parameters. Regeneration between the candidates is done with 10 mM glycine*HCl, 2 M NaCl, pH 3.5. The data is fitted to a 1:1 Langmuir binding model and the kinetic parameters of on-rate (ka), off-rate (kd), and affinity […] were determined.

complement pathways = test: Complement inhibition assays, comparison with parental Clone IV; type: biochemical, human; conditions: in words
Text: To identify antibodies that block all 3 complement pathways, antibodies are screened using an enzyme immunoassay for the qualitative determination of functional classical, lectin and alternative complement pathways in human serum using the WEISLAB® Complement system Screen (Svar Life Science AB, Malmö, Sweden).

[1] = Storage stability at 150 mg/ml, chemical degradation by IEX-HPLC; type: physicochemical
Protocol: (§2) Clone I, clone II and clone III are tested for storage stability. Samples are concentrated to 150 mg/ml (Vivaspin20 centrifugal device, 5 kDa MWCO at 3800×g) and stored at 25° C. and 40° C. for up to 4 weeks. Samples are analyzed for oligomerization (SE-HPLC) and chemical degradation (IEX-HPLC). The starting monomeric purity as determined by SE-HPLC was 99.96% for each clone. The starting charge purity, as determined by IEX-HPLC was 98.07%, 97.16% and 96.76%, respectively for clone I, II and III.

[2] = molecular target: T1, recombinant C3 (wild-type human C3) (Homo sapiens, UniProt P01024); test: SPR (Biacore T100) binding to recombinant C3
T1 construct: 6×His (N); made in house; host or cells: CHO (ExpiFectamine CHO Expression Kit)
Protocol: as §1
(§3) Proteins are expressed with N-terminal 6×His tag and purified using a HisTrap Excel HP column (GE Healthcare), followed by a size-exclusion chromatography step (SUPERDEX®20010/300GL; GE Healthcare).

human C3 P314L = molecular target: T2, human C3 P314L (Homo sapiens, UniProt P01024, P314L); test: SPR (Biacore T100) binding to C3 SNP1 P314L
T2 construct: 6×His (N); made in house; host or cells: CHO (ExpiFectamine CHO Expression Kit)
Protocol: as §1
Single nucleotide polymorphism (SNP) in C3 has been observed across the population and certain SNPs were identified in genome-wide association studies (GWAS) to correlate with an increased risk to develop AMD. […] Very rare variants, which occur in less that 2.5% of the population include K155Q, R735W, S1619W, K65Q and R161W.
as §3

[3] = Viscosity at high concentrations, cone-plate-rheometer; type: physicochemical; conditions: 20° C., shear-rate 1000 s^−1
Protocol: Viscosity measurements are performed with the samples prepared for the storage stability study. In addition to the fully formulated samples (10 mM His pH 5.5, 275 mM sucrose, 0.02% w/v Polysorbate20), viscosity of each candidate is also measured in a minimal formulation (10 mM histidine pH 5.5). This is performed to evaluate the drug substance processability (e.g., filtration, pumping, diafiltration, etc.) of the candidates up to 125% of the final drug product concentration of 150 mg/ml.
Viscosity is measured at 20° C. at a shear-rate of 1000 s^−1 using a cone-plate-rheometer. Briefly, a stepwise increase of the shear rate up to 1,000 s^−1 is done collecting 100 data points, followed by a further increase of the shear rate up to 2000 s^−1, collecting another 10 data points. Finally, a stepwise decrease of the shear rate down to starting rate is done. Good drug product handling properties for filling and syringeability have been observed for all candidates

human C3 R102G = molecular target: T3, human C3 R102G (Homo sapiens, UniProt P01024, R102G); test: SPR (Biacore T100) binding to C3 SNP2 R102G
T3 construct: 6×His (N); made in house; host or cells: CHO (ExpiFectamine CHO Expression Kit)
Protocol: as §1
Single nucleotide polymorphism (SNP) in C3 has been observed across the population and certain SNPs were identified in genome-wide association studies (GWAS) to correlate with an increased risk to develop AMD. Common SNP variants include P314L, which occurs in approximately 23.3% of population, and R102G, which has been reported to occur in approximately 26-29% of population. Very rare variants, which occur in less that 2.5% of the population include K155Q, R735W, S1619W, K65Q and R161W.
The inventors therefore measured the binding affinity of the scFv of the invention to the most commonly occurring C3 forms, i.e., R102G and P314L. Wild-type human C3, human C3 P314L and human C3 R102G are expressed in the CHO cell line using the ExpiFectamine CHO Expression Kit (Thermo Fisher Scientific). Proteins are expressed with N-terminal 6×His tag and purified using a HisTrap Excel HP column (GE Healthcare), followed by a size-exclusion chromatography step (SUPERDEX®20010/300GL; GE Healthcare).

[4] = Storage stability at 150 mg/ml, oligomerization by SE-HPLC; type: physicochemical; conditions: decrease in monomeric content versus start
Protocol: as §2

human C3b = molecular target: T4, human C3b (Homo sapiens, UniProt P01024); test: SPR (Biacore T100) binding to human C3b
T4 construct: C3b is derived from native C3 and is the larger of two elements formed by the cleavage of C3
Protocol: as §1

cyno C3 = test: SPR (Biacore T100) binding to cyno C3; design: species or system cynomolgus (Macaca fascicularis)
Protocol: as §1

Sequence of human C3 (P01024 23-1663): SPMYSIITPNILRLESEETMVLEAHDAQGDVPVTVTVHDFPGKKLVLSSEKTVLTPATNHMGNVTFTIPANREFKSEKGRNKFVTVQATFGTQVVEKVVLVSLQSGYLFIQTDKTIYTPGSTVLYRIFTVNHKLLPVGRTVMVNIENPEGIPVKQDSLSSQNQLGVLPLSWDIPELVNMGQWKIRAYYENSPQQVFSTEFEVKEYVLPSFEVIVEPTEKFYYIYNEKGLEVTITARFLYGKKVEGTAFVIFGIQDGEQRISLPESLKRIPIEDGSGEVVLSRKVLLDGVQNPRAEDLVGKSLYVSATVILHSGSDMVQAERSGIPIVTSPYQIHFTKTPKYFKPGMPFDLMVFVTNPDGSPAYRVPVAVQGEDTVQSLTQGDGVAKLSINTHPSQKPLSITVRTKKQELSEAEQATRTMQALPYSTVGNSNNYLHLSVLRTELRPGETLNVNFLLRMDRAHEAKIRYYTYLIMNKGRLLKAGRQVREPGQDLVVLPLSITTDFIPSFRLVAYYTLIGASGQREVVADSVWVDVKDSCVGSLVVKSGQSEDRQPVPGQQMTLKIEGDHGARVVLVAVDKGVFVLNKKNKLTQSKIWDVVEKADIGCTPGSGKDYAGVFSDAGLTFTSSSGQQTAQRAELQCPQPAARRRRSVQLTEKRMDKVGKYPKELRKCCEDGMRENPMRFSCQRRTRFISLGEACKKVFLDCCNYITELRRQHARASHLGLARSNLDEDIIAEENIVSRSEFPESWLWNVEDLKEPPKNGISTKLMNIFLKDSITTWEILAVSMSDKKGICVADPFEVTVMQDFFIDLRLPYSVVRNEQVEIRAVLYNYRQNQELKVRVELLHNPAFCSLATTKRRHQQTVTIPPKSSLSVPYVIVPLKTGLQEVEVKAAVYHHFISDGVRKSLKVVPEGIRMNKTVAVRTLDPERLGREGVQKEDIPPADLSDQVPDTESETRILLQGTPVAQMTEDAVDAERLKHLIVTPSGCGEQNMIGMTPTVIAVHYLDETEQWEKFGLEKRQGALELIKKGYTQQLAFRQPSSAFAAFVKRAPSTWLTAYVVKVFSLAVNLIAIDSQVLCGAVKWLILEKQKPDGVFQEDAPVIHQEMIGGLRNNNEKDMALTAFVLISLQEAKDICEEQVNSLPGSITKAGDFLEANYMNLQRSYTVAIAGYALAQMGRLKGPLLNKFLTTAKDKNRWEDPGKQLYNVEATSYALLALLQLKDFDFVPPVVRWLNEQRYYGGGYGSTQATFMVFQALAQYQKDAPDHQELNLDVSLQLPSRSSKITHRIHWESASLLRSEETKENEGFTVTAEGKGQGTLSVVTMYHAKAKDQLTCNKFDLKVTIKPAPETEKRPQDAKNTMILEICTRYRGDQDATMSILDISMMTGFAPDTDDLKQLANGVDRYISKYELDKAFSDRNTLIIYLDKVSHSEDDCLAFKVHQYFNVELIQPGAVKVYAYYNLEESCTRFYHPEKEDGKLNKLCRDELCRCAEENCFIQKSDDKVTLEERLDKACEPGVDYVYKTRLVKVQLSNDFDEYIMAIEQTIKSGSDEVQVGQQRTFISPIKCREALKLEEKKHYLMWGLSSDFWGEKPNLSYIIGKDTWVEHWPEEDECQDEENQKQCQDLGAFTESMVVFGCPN
T1 sequence (P01024 23-1663): as above
T2 sequence (P01024 23-1663 P314L): as the sequence (P01024 23-1663) above, with P292L counted along it
T4 sequence (P01024 23-667 limits assumed): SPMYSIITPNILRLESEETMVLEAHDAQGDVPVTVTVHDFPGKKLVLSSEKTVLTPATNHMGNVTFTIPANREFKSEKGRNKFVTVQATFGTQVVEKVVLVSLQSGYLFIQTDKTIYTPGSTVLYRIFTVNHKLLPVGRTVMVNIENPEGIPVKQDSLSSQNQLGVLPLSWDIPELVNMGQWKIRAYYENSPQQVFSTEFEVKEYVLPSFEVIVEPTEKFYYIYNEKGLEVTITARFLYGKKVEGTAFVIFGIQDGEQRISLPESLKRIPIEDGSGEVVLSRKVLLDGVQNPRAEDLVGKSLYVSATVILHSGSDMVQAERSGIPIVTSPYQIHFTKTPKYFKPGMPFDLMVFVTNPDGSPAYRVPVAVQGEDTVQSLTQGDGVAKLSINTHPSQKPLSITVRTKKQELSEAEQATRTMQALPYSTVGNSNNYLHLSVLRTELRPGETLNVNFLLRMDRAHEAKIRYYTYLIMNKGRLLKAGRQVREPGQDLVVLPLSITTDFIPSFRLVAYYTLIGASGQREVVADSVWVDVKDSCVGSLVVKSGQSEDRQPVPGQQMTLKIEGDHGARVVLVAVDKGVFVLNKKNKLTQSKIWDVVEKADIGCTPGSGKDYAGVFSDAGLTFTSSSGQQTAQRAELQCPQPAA
T4 sequence (P01024 749-1663 limits assumed): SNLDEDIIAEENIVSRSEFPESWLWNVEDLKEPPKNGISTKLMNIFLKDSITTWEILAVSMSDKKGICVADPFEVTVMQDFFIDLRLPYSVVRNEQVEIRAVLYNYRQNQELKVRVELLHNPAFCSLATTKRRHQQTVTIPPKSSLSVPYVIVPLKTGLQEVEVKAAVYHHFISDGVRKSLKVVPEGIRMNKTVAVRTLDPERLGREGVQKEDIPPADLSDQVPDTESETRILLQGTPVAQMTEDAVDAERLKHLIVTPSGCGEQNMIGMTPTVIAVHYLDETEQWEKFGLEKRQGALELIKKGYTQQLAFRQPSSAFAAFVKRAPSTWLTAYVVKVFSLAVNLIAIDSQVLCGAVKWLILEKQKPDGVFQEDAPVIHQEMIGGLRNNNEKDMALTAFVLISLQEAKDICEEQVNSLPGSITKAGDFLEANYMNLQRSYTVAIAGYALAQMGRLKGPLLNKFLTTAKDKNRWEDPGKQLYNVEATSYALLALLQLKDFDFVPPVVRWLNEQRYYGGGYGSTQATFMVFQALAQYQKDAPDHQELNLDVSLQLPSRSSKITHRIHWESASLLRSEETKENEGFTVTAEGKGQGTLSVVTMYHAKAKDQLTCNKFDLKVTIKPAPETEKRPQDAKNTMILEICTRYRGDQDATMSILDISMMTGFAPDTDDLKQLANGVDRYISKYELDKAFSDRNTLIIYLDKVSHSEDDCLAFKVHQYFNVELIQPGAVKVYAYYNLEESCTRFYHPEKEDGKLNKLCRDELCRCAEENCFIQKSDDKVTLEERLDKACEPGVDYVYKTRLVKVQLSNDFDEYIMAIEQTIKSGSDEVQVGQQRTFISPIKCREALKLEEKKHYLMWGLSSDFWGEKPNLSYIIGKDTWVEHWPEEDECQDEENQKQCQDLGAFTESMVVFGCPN
T3 sequence (P01024 23-1663 R102G): as the sequence (P01024 23-1663) above, with R80G counted along it

B1: Clone V: reformatted and humanized scFv variant of Clone IV, SEQ ID NO: 33 (protein)
scFv: MQLVLTQSPSASASLGASVKLTCTLSSAHKTYTIDWYQQQPEKGPRYLMQLKSDGSYTKGTGVPDRFSGSSSGAERYLTISSLQSEDEADYYCGTDYGGGYVFGGGTKLTVLGGGGGSGGGGSGGGGSGGGGSQVQVVESGGGSVQPGRSLRLSCAASGFSLYNYAMNWVRQAPGKGLEWIGIINTDGNTNYASWAKGRFTISTDNSKNTLYLQMNSLRAEDTASYYCPRAVGYHHHALDPWGQGTSVTVSS
modifications: ScFv
In the case of B1, the “Binding affinity to C3 and C3b compared to parental molecule Clone IV” value (human C3) is reported as “lower binding affinity” and the “Complement inhibition activity compared to parental molecule Clone IV” value (complement pathways) is reported as “retains its ability to inhibit the classical and alternative complement pathways”.

B2: Clone III: humanized anti-C3 scFv, VH SEQ ID NO: 24, VL SEQ ID NO: 25; scFv SEQ ID NO: 30 or 31 (protein)
scFv: MQLVLTQSPSASASLGASVKLTCTLSSAHKTYTIDWYQQQPEKCPRYLMQLKSEGSYTKGSGIPDRFSGSSSGAERYLTISSLQSEDEADYYCGTEGVGGYVFGGGTKLTVLGGGGGSGGGGSGGGGSGGGGSQVQLVESGGGSVQPGRSLRLSCAASGFTFSNYAMNWVRQAPGKGLEWVAIINVGGGTNYADSVKGRFTISRDNSKNTLYLQMNSLRAEDTASYYCARAVGYHHARLDPWGCGTSVTVSS
For B2, the “Starting charge purity (IEX-HPLC)” value ([1]; before storage) was 96.76%, the “Storage stability, IEX 4 weeks at 25° C. [D %]” value ([1]; decrease versus start) was 0.3 D % and the “Storage stability, IEX 4 weeks at 40° C. [D %]” value ([1]; decrease versus start) was 3.6 D %. The “kd recombinant C3” value ([2]; off-rate) was 3.5e-05 s⁻¹, the “ka recombinant C3” value ([2]; on-rate) was 270000 M⁻¹ s⁻¹ and the “kd C3 SNP1 P314L” value (human C3 P314L; off-rate) was 3.2e-05 s⁻¹. The “ka C3 SNP1 P314L” value (human C3 P314L; on-rate) was 250000 M⁻¹ s⁻¹, the “Viscosity [mPa * s] Fully formulated at 150 g/L” value ([3]; 10 mM His pH 5.5, 275 mM sucrose, 0.02% w/v Polysorbate20) was 3.3 mPa * s and the “Viscosity [mPa * s] Minimal buffer at 185 g/L” value ([3]; 10 mM His pH 5.5) was 3.2 mPa * s. For the same molecule, the “kd C3” value (human C3; off-rate) was 3.6e-05 s⁻¹, the “ka C3” value (human C3; on-rate) was 240000 M⁻¹ s⁻¹ and the “kd C3 SNP2 R102G” value (human C3 R102G; off-rate) was 3.2e-05 s⁻¹. For the same molecule, the “ka C3 SNP2 R102G” value (human C3 R102G; on-rate) was 280000 M⁻¹ s⁻¹, the “Storage stability, SEC 4 weeks at 25° C. [D %]” value [4] was 0.10 D % and the “Storage stability, SEC 4 weeks at 40° C. [D %]” value [4] was 0.84 D %. The “kd C3b” value (human C3b; off-rate) was 3.1e-05 s⁻¹, the “ka C3b” value (human C3b; on-rate) was 250000 M⁻¹ s⁻¹ and the “kd cyno C3” value (cyno C3; off-rate) was 4.3e-05 s⁻¹. For the same molecule, the “ka cyno C3” value (cyno C3; on-rate) was 200000 M⁻¹ s⁻¹.

B3: Clone VII: affinity maturation hit scFv, SEQ ID NO: 35 (protein)
scFv: MQLVLTQSPSASASLGASVKLTCTLSSAHKTYTIDWYQQQPEKGPRYLMQLKSEGSYTKGTGVPDRFSGSSSGAERYLTISSLQSEDSAVYYCGTEGVGGYVFGCGTKLTVLGGGGGSGGGGSGGGGSGGGGSQVQVVESGGGSVQPGRSLRLSCAVSGFSLYNYAMNWVRQAPGKCLEWIGIINVGGGTNYASWAKGRFTISTDNSKNTVYLQMNSLRAEDTASYYCARAVGYHHHALDPWGQGTSVTVSS
modifications: ScFv
For B3, the “Binding affinity to C3 and C3b compared to parental molecule Clone IV” value (human C3) was “comparable binding affinity” and the “Complement inhibition activity compared to parental molecule Clone IV” value (complement pathways) was “comparable”.

B4: Clone IX: affinity maturation hit scFv, SEQ ID NO: 37 (protein)
scFv: MQLVLTQSPSASASLGASVKLTCTLSSAHKTYTIDWYQQQPEKGPRYLMQLKSEGSYTKGTGVPDRFSGSSSGAERYLTISSLQSEDSAVYYCGTDGVGGYVFGCGTKLTVLGGGGGSGGGGSGGGGSGGGGSQVQVVESGGGSVQPGRSLRLSCAVSGFSLYNYAMNWVRQAPGKCLEWIGIINVGGGTNYASWAKGRFTISTDNSKNTVYLQMNSLRAEDTASYYCARAVGYHHHALDPWGQGTSVTVSS
modifications: ScFv
In the case of B4, the “Binding affinity to C3 and C3b compared to parental molecule Clone IV” value (human C3) is reported as “comparable binding affinity” and the “Complement inhibition activity compared to parental molecule Clone IV” value (complement pathways) is reported as “comparable”.
